# Measured values: patent publication US11882829B2, “Fusion proteins and methods for stimulating plant growth, protecting plants, and immobilizing bacillus spores on plants” (Spogen Biotech Inc., priority 2013, dated 2024)
# B1: BxpB/ExsFA (SEQ ID NO: 95): BxpB promoter (B. thuringiensis Al Hakam) (nucleic acid, listed as Bacillus thuringiensis)
# DNA: AAACTAAATAATGAGCTAAGCATGGATTGGGTGGCAGAATTATCTGCCACCCAATCCATGCTTAACGAGTATTATTATGTAAATTTCTTAAAATTGGGAACTTGTCTAGAACATAGAACCTGTCCTTTTCATTAACTGAAAGTAGAAACAGATAAAGGAGTGAAAAACA
# B2: BclA adjacent US Glycosyl transferase promoter 1 (SEQ ID NO: 101): BclA cluster glycosyl transferase operon 1 promoter (nucleic acid, listed as Bacillus thuringiensis)
# DNA: ATTTTTTACTTAGCAGTAAAACTGATATCAGTTTTACTGCTTTTTCATTTTTAAATTCAATCATTAAATCTTCCTTTTCTACATAGTCATAATGTTGTATGACATTCCGTAGGAGGCACTTATA
# modifications: expressed or natural sequence
# notes: BclA cluster glycosyl transferase operon 1 promoter
# B3: BclC (SEQ ID NO: 98) (nucleic acid, listed as Bacillus anthracis)
# DNA: TGAAGTATCTAGAGCTAATTTACGCAAAGGAATCTCAGGACAACACTTTCGCAACACCTATATTTTAAATTTAATAAAAAAAGAGACTCCGGAGTCAGAAATTATAAAGCTAGCTGGGTTCAAATCAAAAATTTCACTAAAACGATATTATCAATACGCAGAAAATGGAAAAAACGCCTTATCATAAGGCGTTTTTTCCATTTTTTCTTCAAACAAACGATTTTACTATGACCATTTAACTAATTTTTGCATCTACTATGATGAGTTTCATTCACATTCTCATTAGAAAGGAGAGATTTAATG
# B4: InhA (SEQ ID NO: 100): InhA promoter (B. thuringiensis Al Hakam) (nucleic acid, listed as Bacillus thuringiensis)
# DNA: TATCACATAACTCTTTATTTTTAATATTTCGACATAAAGTGAAACTTTAATCAGTGGGGGCTTTGTTCATCCCCCCACTGATTATTAATTGAACCAAGGGATAAAAAGATAGAGGGTCTGACCAGAAAACTGGAGGGCATGATTCTATAACAAAAAGCTTAATGTTTATAGAATTATGTCTTTTTATATAGGGAGGGTAGTAAACAGAGATTTGGACAAAAATGCACCGATTTATCTGAATTTTAAGTTTTATAAAGGGGAGAAATG
# B5: ExsY (SEQ ID NO: 91): ExsY promoter (B. thuringiensis serovar konkukian str. 97-27) (nucleic acid, listed as Bacillus thuringiensis)
# DNA: TAATTCCACCTTCCCTTATCCTCTTTCGCCTATTTAAAAAAAGGTCTTGAGATTGTGACCAAATCTCCTCAACTCCAATATCTTATTAATGTAAATACAAACAAGAAGATAAGGAGTGACATTAA
# modifications: expressed or natural sequence
# B6: BclA adjacent DS Glycosyl transferase promoter 2 (SEQ ID NO: 102): BclA cluster glycosyl transferase operon 2 promoter (nucleic acid, listed as Bacillus thuringiensis)
# DNA: ACATAAATTCACCTCCATAAAGCGTTCATTATATAGTAGATGCAAAACCGAAAGAAAATGACACGGACATTTGAATTATTGAAAAGAAATCTTAAACTACTTGAACAATTTAAAAAAATGGAAAGTTTAGTATATGTATAACATATGATTGATTTGGAAGAGGGTGATTA
# B7: YjcA (SEQ ID NO: 93): YjcA promoter (B. thuringiensis serovar kurstaki str. HD73) (nucleic acid, listed as Bacillus thuringiensis)
# DNA: TTAATGTCACTCCTTATCTTCTTGTTTGTATTTACATTAATAAGATATTGGAGTTGAGGAGATTTGGTCACAATCTCAAGACCTTTTTTTTAAATAGGCGAAAGAGGATAAGGGAAGGTGGAATTA
# modifications: expressed or natural sequence
# B8: Rhamnose Promoters (SEQ ID NO: 96): Rhamnose promoter (B. thuringiensis Al Hakam) (nucleic acid, listed as Bacillus thuringiensis)
# DNA: ATTCACTACAACGGGGATGAGTTTGATGCGGATACATATGAGAAGTACCGGAAAGTGTTTGTAGAACATTACAAAGATATATTATCTCCATCATAAAGGAGAGATGCAAAG
# modifications: expressed or natural sequence
# B9: BclA (SEQ ID NO: 85) (nucleic acid, listed as Bacillus anthracis)
# DNA: TAATCACCCTCTTCCAAATCAATCATATGTTATACATATACTAAACTTTCCATTTTTTTAAATTGTTCAAGTAGTTTAAGATTTCTTTTCAATAATTCAAATGTCCGTGTCATTTTCTTTCGGTTTTGCATCTACTATATAATGAACGCTTTATGGAGGTGAATTTATG
# B10: Sigma K (SEQ ID NO: 99) (nucleic acid, listed as Bacillus anthracis)
# DNA: TATATCATATGTAAAATTAGTTCTTATTCCCACATATCATATAGAATCGCCATATTATACATGCAGAAAACTAAGTATGGTATTATTCTTAAATTGTTTAGCACCTTCTAATATTACAGATAGAATCCGTCATTTTCAACAGTGAACATGGATTTCTTCTGAACACAACTCTTTTTCTTTCCTTATTTCCAAAAAGAAAAGCAGCCCATTTTAAAATACGGCTGCTTGTAATGTACATTA
# B11: YjcB (SEQ ID NO: 94): YjcB promoter (B. thuringiensis serovar kurstaki str. HD73) (nucleic acid, listed as Bacillus thuringiensis)
# DNA: ATATATTTTCATAATACGAGAAAAAGCGGAGTTTAAAAGAATGAGGGAACGGAAATAAAGAGTTGTTCATATAGTAAATAGACAGAATTGACAGTAGAGGAGA
# modifications: expressed or natural sequence
# B12: CotY (SEQ ID NO: 97) (nucleic acid, listed as Bacillus anthracis)
# DNA: CGCGCACCACTTCGTCGTACAACAACGCAAGAAGAAGTTGGGGATACAGCAGTATTCTTATTCAGTGATTTAGCACGCGGCGTAACAGGAGAAAACATTCACGTTGATTCAGGGTATCATATCTTAGGATAAATATAATATTAATTTTAAAGGACAATCTCTACATGTTGAGATTGTCCTTTTTATTTGTTCTTAGAAAGAACGATTTTTAACGAAAGTTCTTACCACGTTATGAATATAAGTATAATAGTACACGATTTATTCAGCTACGTA
# Experiments:
# [1] = test system: corn plants at the V5 stage; assay: Foliar application to corn under heat and water stress (Example 38); type: in vivo; conditions: for Change in plant Height over 2 week stress: foliar spray 1 ml/plant, 32.2° C., watering once per week, compared to water-only control
# Corn = Corn growth after BEMD PhoA4 spores with or without polyphosphate (Example 11); type: in vivo; conditions: Additive: Polyphosphate 0.5 mg/pot; corn height at two weeks
# [2] = test system: sigma K driven genes in Bacillus cereus family members; conditions: microarray data from Bergman et al., 2008; late sporulation, 300 minutes; cited from earlier work
Molecule,Relative Expression (Fold increase in mRNA) [2],other results
"c1ccc2snnc2c1 [Benzothiadiazole (BTH), Benzothiadiazole]",,effect on growth of stressed corn [1]: positive responses; Change in plant Height over 2 week stress [1]: 7.3%
O=C(O)c1ccccc1O [Salicylic Acid],,effect on growth of stressed corn [1]: positive responses; Change in plant Height over 2 week stress [1]: 5.8%
Polyphosphate,,"Growth, Comparison to Water (Corn): 110.8%"
B1,30.25 Fold,
B2,72.25 Fold,
B3,14.44 Fold,
B4,34.25 Fold,
B5,32.49 Fold,
B6,73.96 Fold,
B7,64 Fold,
B8,75.69 Fold,
B9,77.44 Fold,
B10,64 Fold,
B11,70.56 Fold,
B12,79.21 Fold,
